Blank lines part the entries; values can stand above or below the binder they belong to.
What was measured:
[1] = molecular target: T1, human GARP-proTGFβ1 complex (human, UniProt Q14392 18-627; P01137 30-390, limits assumed); assay: Octet (bio-layer interferometry), response at 200 nM antigen; 0.1 nm cutoff designates meaningful binding
T1 construct: Exemplary entries; also called Hu GARP-proTGFβ1; huGARP proTGFb1
Protocol: This experiment was performed at 200, 100, 50, and 25 nM human GARP proTGFb1 and human LTBP1 proTGFbl. […] Surface plasmon resonance (SPR)-based assays

[2] = molecular target: T2, mouse LTBP1-proTGFβ1 complex (mouse, UniProt Q8CG19 339-1712; P04202 30-390); assay: cell-based or functional assay
[3] = molecular target: LTBP-proTGFβ1: transfected human proTGFβ1 presented by endogenous LTBP1/3 of LN229 cells (human); assay: cell-based or functional assay
[4] = molecular target: T2, mouse LTBP1-proTGFβ1 complex; assay: Octet BLI, IgG captured
Protocol: (§1) LTBP complex-specific antibodies from the first round of affinity maturation/optimization (SR-AB14, SR-AB16, SR-AB17, SR-AB18, SR-AB19) were selected for a second round of affinity maturation/optimization (i.e., CDR-H3 mutagenesis as described herein) and particular progeny antibodies (SR-AB20, SR-AB21, SR-AB22, SR-AB23, SR-AB24, SR-AB25, SR-AB26, SR-AB27, SR-AB28, and SR-AB29) were assessed for their ability to bind various proTGFβ1 constructs. Binding affinities of the optimized antibodies were measured by Octet against human LTBP1-proTGFβ1, human LTBP3-proTGFbl, mouse LTBP1-proTGFβ1, mouse LTBP3-proTGFbl, and GARP-proTGFβ1 complexes, essentially as described in Example 6. […] The antigens were allowed to associate for 3 minutes followed by a 5-minute dissociation. Kinetics buffer (ForteBio®) was used throughout the experiment, and KD was determined using a 1:1 fitting model for each antibody antigen pair.

[5] = molecular target: T3, mouse LTBP3-proTGFβ1 complex (mouse, UniProt Q61810 41-1245; P04202 30-390, limits assumed); assay: Octet BLI, IgG captured
T3 construct: Exemplary entries; also called Mo LTBP3-proTGFβ1; Murine LTBP3 proTGFb1
Protocol: as §1

[6] = molecular target: T4, human LTBP3-proTGFβ1 complex (human, UniProt Q9NS15 44-1303; P01137 30-390, limits assumed); assay: Octet BLI, IgG captured
T4 construct: Exemplary entries; also called Hu LTBP3-proTGFβ1; huLTBP3 proTGFb1
Protocol: as §1

[7] = molecular target: T5, human LTBP1-proTGFβ1 complex (human, UniProt Q14766 347-1721; P01137 30-390); assay: Octet BLI, IgG captured
T5 construct: Large latent complex: one presenting molecule disulfide-linked to a proTGFβ1 dimer; also called Hu LTBP1-proTGFβ1; huLTBP1 proTGFβ1
Protocol: as §1

[8] = molecular target: T6, human LRRC33-proTGFβ1 complex (human, UniProt Q86YC3 19-650; P01137 30-390, limits assumed); assay: Octet, antibody immobilized
T6 construct: Exemplary entries; also called huLRRC33 proTGFb1; HuLRRC33-ProTGFb1

[9] = molecular target: T3, mouse LTBP3-proTGFβ1 complex; assay: Octet (bio-layer interferometry), yeast expressed IgG1Agly antibody, antigen at a single 100 nM per Example 6
[10] = molecular target: T1, human GARP-proTGFβ1 complex; assay: as above
[11] = molecular target: T5, human LTBP1-proTGFβ1 complex; assay: Octet binning; competitor (immobilized second antibody) SR-AB2
Protocol: (§2) 500 nM of human LTBP1-proTGFb1 complex was pre-incubated with 1 μM of each test antibody. After an overnight incubation, the LTBP1-proTGFβ1+first antibody was tested for binding to a second antibody which was immobilized to an Anti-Human IgG Fc Capture (AHC) sensor tip at 67 nM. The sensor tip was blocked with a negative control antibody (HuNeg) before seeing the LTBP1-proTGFβ1+first antibody.
(§3) Normalized responses less than 70% or less than 0.7 of the uninhibited interaction were considered antibodies that cross block.

[12] = molecular target: T5, human LTBP1-proTGFβ1 complex; assay: Octet binning; competitor (immobilized second antibody) SR-AB13
Protocol: as §2, §3

LTBP1 alone = molecular target: T7, LTBP1 alone (Homo sapiens (Human), UniProt Q14766 347-1721); assay: ELISA on immobilised antigen (Example 4), RLU, mean ± SD
T7 construct: LTBP1 not in complex with TGFβ1
T7 sequence: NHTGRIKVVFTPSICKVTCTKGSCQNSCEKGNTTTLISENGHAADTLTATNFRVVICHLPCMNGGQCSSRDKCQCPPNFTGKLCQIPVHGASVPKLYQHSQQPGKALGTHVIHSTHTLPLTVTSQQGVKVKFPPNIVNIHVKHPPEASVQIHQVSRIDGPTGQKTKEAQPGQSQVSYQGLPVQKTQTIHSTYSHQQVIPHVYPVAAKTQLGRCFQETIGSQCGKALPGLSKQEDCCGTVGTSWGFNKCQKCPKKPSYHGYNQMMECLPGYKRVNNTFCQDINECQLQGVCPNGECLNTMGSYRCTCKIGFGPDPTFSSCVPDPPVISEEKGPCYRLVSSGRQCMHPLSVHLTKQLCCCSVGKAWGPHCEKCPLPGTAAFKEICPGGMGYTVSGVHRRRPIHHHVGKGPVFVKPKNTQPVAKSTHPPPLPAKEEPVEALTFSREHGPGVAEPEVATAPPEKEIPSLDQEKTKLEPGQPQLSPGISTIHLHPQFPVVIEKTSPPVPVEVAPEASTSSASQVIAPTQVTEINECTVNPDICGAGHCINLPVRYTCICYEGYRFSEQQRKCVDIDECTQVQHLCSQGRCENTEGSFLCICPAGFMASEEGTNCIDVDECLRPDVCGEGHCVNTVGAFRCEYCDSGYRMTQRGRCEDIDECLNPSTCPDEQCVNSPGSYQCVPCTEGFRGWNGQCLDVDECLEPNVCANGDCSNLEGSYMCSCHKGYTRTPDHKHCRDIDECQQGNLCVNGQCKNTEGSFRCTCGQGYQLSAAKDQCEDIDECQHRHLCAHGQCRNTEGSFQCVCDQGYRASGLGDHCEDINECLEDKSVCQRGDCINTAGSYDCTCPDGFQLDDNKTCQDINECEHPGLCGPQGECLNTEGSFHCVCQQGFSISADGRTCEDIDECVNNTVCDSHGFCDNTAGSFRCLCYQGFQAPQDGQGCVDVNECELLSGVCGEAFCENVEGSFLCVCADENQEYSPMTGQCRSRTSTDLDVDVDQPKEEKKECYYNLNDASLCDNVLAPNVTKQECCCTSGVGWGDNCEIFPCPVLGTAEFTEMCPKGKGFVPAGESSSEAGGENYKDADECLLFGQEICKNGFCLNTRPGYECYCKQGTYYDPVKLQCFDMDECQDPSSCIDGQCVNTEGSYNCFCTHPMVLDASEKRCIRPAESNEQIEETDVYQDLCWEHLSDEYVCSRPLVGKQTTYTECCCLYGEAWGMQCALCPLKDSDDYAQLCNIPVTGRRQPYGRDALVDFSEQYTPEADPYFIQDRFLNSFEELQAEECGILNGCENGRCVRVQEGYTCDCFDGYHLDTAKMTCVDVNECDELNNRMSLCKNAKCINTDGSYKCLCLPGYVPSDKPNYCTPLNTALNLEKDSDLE

proTGFβ1 alone = molecular target: T8, proTGFβ1 alone (Homo sapiens (Human), UniProt P01137 30-390); assay: as above
T8 construct: proTGFβ1 not in complex with a presenting molecule

[13] = molecular target: T2, mouse LTBP1-proTGFβ1 complex; assay: Octet (bio-layer interferometry), yeast expressed IgG1Agly antibody, antigen at a single 100 nM per Example 6, 1:1 fit; value printed under the panel
Target sequence in this assay (P04202 30-390 limits assumed, one chain of several): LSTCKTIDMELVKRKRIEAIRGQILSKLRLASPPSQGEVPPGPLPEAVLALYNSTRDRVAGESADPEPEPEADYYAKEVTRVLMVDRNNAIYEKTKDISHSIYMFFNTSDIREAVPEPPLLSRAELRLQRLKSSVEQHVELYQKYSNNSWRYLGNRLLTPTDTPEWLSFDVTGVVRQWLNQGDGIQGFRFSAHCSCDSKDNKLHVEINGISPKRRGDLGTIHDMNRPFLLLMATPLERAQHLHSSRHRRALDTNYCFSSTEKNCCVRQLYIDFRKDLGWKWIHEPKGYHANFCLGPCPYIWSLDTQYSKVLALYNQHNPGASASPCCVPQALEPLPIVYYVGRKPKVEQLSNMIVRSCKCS

[14] = molecular target: T5, human LTBP1-proTGFβ1 complex; assay: as above
[15] = molecular target: T2, mouse LTBP1-proTGFβ1 complex; assay: bio-layer interferometry sensorgrams (y axis nm), concentration series with kinetic table under the panel; concentrations not shown
Target sequence in this assay (P04202 30-390 limits assumed, one chain of several): as above

Rat LTBP1-proTGFβ1 = molecular target: T9, Rat LTBP1-proTGFβ1 (rat); assay: as above
T9 construct: the sheet labels the whole complex 'Rat'; Named only on the sheet; The legend says only that SR-AB2 cross-reacts with rodent LTBP1-proTGFβ1

[16] = molecular target: T5, human LTBP1-proTGFβ1 complex; assay: as above
mature TGFβ1 = molecular target: T10, mature TGFβ1 (UniProt P01137 279-390); assay: FIG. 2B binding assay
T10 construct: mature

[17] = molecular target: T5, human LTBP1-proTGFβ1 complex; assay: Octet binning; competitor (immobilized second antibody) SR-AB1
Protocol: as §2, §3

[18] = molecular target: T5, human LTBP1-proTGFβ1 complex; assay: Octet binning; competitor (immobilized second antibody) SR-AB10
Protocol: as §2, §3

T5 sequence (P01137 30-390 limits assumed, one chain of several): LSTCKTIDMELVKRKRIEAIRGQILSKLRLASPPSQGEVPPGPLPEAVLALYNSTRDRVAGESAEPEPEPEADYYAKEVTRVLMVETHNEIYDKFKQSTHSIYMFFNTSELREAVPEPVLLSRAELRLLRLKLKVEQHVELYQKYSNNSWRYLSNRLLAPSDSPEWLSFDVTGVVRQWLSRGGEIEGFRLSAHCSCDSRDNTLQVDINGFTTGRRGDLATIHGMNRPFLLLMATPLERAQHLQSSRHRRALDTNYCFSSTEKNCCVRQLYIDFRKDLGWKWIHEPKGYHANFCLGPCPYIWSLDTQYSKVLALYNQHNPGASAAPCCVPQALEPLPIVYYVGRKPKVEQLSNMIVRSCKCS
T1 sequence (Q14392 18-627 limits assumed, chain 1 of 2): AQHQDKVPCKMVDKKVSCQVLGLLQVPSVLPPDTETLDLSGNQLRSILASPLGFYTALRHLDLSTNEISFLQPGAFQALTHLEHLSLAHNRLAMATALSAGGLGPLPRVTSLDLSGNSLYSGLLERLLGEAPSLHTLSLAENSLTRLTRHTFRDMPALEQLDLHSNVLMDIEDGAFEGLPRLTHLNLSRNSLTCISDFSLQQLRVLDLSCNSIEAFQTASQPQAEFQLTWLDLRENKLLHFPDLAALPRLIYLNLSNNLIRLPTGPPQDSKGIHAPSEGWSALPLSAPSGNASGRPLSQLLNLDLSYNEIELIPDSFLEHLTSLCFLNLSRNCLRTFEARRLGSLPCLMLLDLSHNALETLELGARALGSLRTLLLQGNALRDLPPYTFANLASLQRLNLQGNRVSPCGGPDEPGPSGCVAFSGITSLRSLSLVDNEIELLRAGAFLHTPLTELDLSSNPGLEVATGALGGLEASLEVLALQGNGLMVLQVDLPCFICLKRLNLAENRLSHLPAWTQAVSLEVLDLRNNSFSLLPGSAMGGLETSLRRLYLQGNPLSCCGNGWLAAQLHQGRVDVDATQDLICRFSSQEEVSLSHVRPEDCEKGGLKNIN
T1 sequence (P01137 30-390 limits assumed, chain 2 of 2): as the sequence (P01137 30-390 limits assumed, one chain of several) above
T3 sequence (Q61810 other isoform, or with tags, fused parts or gaps limits assumed, chain 1 of 2): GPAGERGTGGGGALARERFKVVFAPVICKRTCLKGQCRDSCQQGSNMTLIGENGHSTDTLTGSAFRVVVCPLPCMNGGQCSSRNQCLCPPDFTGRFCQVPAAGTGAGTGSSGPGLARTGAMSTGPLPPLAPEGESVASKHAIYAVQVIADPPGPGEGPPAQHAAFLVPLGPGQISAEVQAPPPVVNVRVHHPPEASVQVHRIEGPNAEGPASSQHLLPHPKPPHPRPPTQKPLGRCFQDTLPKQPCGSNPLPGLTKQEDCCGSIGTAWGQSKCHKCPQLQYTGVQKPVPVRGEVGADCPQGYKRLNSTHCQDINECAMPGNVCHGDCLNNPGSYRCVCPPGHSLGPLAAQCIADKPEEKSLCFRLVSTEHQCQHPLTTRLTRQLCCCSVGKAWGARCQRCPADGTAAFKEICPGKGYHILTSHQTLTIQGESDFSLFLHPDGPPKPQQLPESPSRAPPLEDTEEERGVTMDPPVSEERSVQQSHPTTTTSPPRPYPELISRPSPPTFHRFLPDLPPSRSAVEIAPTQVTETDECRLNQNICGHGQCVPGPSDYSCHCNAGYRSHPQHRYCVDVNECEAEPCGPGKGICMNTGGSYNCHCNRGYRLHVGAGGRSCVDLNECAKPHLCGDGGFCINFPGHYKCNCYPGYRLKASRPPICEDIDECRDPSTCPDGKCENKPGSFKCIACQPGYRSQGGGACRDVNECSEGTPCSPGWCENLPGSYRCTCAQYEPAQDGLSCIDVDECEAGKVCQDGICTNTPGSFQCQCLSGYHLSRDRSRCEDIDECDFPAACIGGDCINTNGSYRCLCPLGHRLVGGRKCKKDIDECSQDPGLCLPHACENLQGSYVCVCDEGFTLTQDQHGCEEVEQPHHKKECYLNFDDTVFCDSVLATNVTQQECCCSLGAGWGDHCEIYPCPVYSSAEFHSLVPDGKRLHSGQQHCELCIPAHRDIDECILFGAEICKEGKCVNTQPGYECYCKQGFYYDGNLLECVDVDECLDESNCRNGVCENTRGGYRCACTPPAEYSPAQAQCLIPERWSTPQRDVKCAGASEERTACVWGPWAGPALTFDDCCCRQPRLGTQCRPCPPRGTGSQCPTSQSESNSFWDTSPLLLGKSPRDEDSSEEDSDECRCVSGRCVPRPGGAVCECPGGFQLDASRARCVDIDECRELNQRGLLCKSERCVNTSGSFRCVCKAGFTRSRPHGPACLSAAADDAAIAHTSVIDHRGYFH
T3 sequence (P04202 30-390 limits assumed, chain 2 of 2): as the sequence (P04202 30-390 limits assumed, one chain of several) above
T4 sequence (Q9NS15 44-1303 limits assumed, chain 1 of 2): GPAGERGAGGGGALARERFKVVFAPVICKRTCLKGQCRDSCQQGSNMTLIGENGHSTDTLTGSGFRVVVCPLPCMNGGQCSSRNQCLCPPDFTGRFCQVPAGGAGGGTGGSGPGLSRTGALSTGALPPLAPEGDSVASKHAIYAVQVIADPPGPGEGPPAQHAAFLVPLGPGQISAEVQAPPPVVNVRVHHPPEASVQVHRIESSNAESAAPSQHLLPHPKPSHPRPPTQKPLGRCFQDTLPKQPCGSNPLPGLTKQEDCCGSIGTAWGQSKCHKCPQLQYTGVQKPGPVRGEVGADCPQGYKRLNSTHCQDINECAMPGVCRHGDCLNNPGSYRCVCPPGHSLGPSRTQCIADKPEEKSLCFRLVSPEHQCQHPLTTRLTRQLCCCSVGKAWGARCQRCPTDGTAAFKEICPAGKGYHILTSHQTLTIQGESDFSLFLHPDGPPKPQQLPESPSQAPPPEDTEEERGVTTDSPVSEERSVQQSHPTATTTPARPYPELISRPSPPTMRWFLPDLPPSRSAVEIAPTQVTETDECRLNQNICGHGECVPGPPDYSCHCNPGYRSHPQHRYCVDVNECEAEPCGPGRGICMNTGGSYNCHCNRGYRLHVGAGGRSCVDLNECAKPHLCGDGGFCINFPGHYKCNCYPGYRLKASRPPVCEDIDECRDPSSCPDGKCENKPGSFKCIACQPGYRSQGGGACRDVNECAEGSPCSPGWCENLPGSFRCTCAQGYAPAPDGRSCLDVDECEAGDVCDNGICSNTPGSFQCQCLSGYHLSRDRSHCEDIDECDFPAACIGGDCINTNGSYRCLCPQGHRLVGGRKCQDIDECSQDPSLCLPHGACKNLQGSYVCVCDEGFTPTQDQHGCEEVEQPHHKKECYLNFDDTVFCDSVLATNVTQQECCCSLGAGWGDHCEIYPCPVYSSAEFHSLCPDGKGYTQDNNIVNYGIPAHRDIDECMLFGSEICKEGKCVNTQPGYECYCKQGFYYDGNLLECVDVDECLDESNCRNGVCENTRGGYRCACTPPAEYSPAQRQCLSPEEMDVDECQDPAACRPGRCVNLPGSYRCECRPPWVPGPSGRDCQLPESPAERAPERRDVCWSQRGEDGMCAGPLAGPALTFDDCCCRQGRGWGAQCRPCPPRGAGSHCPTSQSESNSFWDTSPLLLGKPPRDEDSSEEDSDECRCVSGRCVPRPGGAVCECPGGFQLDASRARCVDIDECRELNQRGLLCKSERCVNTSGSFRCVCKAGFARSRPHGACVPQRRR
T4 sequence (P01137 30-390 limits assumed, chain 2 of 2): as the sequence (P01137 30-390 limits assumed, one chain of several) above

binding result [1]: no binding (tested: 200 nM) | IC50, mLTBP1 assay (CAGA12 luciferase) [2]: 0.946 nM | IC50, endogenous hLTBP assay (CAGA12 luciferase) [3]: 6.04 nM | Kd [4]: 8.38 nM | Kd [5]: 7.93 nM | Kd [6]: 1.26 nM | Kd [7]: 5.98 nM | binding result [8]: no binding
B1: SR-AB23 (antibody, IgG1, V domains shown)
VH: QVQLVESGGGVVQPGRSLRLSCAASGFTFRSYVMHWVRQAPGKGLEWVAVISHEGSLKYYADSVKGRFTISRDNSKNTLYLQMNSLRAEDTAVYYCARPRIAARRGGFGYWGQGTLVTVSS
VL: NFMLTQPHSVSESPGKTVTISCTRSSGNIDNNYVQWYQQRPGSSPTTVIYEDNQRPSGVPDRFSGSIDSSSNSASLTISGLKTEDEADYYCQSYDSDNQGVVFGGGTKLTVL
notes: Cycle 2, lineage SR-AB14

binding result [9]: no binding (tested: 100 nM) | binding result [10]: no binding (tested: 100 nM) | normalized response [11]: 0.47 fraction of uninhibited binding | normalized response [12]: 1.31 fraction of uninhibited binding | binding result (LTBP1 alone): no binding | binding result (proTGFβ1 alone): no binding | Kd [13]: 245 nM | Kd [14]: 118 nM | Kd [15]: 204 nM | kobs [15]: 0.0134 s⁻¹ | koff [15]: 0.00517 s⁻¹ | kon [15]: 26600 M⁻¹ s⁻¹ | Kd (Rat LTBP1-proTGFβ1): 174 nM | kobs (Rat LTBP1-proTGFβ1): 0.0176 s⁻¹ | koff (Rat LTBP1-proTGFβ1): 0.00582 s⁻¹ | kon (Rat LTBP1-proTGFβ1): 41900 M⁻¹ s⁻¹ | Kd [16]: 188 nM | kobs [16]: 0.0142 s⁻¹ | koff [16]: 0.00502 s⁻¹ | kon [16]: 28400 M⁻¹ s⁻¹ | binding result (mature TGFβ1): no binding | normalized response [17]: 1.11 fraction of uninhibited binding | normalized response [18]: 1.54 fraction of uninhibited binding
B2: SR-AB2 (antibody, V domains shown)
VH: QVQLVQSGAEVKKPGASVKVSCKASGYTFTSYGISWVRQAPGQGLEWMGWISAYNGNTNYAQKLQGRVTMTTDTSTSTAYMELRSLRSDDTAVYYCARAPLGNFDSWGQGTMVTVSS
VL: NFMLTQPHSVSESPGKTVTISCTRSSGSIASNYVQWYQQRPGSSPTTVIYEDNQRPSGVPDRFSGSIDSSSNSASLTISGLKTEDEADYYCQSYDSSNHPVVFGGGTKLTVL

— US20220064276A1 (SCHOLAR ROCK, published 2022)
